Consider ten molecules from patent US20120040894A1.

The chains are these.
T1: ferroportin tagged at the C-terminus with green fluorescent protein (ECR293/Fpn-GFP cells)
T1 sequence (Q9NP59 whole entry, species assumed, looked up): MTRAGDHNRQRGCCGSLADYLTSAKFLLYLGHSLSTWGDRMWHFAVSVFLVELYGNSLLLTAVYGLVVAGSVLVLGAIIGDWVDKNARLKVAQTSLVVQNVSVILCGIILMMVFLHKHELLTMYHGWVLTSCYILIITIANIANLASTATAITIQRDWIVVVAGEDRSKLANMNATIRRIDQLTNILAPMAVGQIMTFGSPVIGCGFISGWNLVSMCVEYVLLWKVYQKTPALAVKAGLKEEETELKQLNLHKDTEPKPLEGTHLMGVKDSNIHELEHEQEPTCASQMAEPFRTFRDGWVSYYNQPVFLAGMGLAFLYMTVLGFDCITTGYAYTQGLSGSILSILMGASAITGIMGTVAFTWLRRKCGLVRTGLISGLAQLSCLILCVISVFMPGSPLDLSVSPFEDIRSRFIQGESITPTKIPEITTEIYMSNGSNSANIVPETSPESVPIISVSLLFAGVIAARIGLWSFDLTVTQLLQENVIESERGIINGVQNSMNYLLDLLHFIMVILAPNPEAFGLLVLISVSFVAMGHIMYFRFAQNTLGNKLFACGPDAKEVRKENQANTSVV

B1: Pr46 (peptide)
peptide: DTH[Dip]PCCC[Dip]-NH2
modifications: also: any disulfide between the Cys residues not recoverable
B2: Pr40 (peptide)
peptide: D[Dpa]PICIF-NH2
modifications: reading uncertain
B3: Pr10 (peptide)
peptide: D[Tle]H[Phg][Oic][Chg]C[Chg]F-NH2
modifications: N-terminus assumed
SMILES: CC(C)(C)[C@H](NC(=O)[C@@H](N)CC(=O)O)C(=O)N[C@@H](Cc1c[nH]cn1)C(=O)N[C@H](C(=O)N1[C@H](C(=O)N[C@H](C(=O)N[C@@H](CS)C(=O)N[C@H](C(=O)N[C@@H](Cc2ccccc2)C(N)=O)C2CCCCC2)C2CCCCC2)C[C@@H]2CCCC[C@@H]21)c1ccccc1
B4: Pr41 (peptide)
peptide: D[Dpa]PICI[Dpa]-NH2
modifications: reading uncertain
B5: Pr19 (peptide)
peptide: DTHFPICI[β3hF]PPK-NH2
B6: Pr20 (peptide)
peptide: DTHFPICI[β3hF]PPR-NH2
B7: Pr22 (peptide)
peptide: DTHFPICI[β3hF]P[β3hP]R-NH2
B8: Pr11 (peptide)
peptide: D[Tle]HP[Oic][Chg]C[Chg]F-NH2
modifications: also: retroinverted
B9: Pr21 (peptide)
peptide: DTHFPICI[β3hF]P[β3hP]K-NH2
B10: Dap(AcBr) (peptide)
peptide: DTHFPI[Dap(AcBr)]IF-NH2
modifications: N-terminus assumed
SMILES: CC[C@H](C)[C@H](NC(=O)[C@H](CNC(=O)CBr)NC(=O)[C@@H](NC(=O)[C@@H]1CCCN1C(=O)[C@H](Cc1ccccc1)NC(=O)[C@H](Cc1c[nH]cn1)NC(=O)[C@@H](NC(=O)[C@@H](N)CC(=O)O)[C@@H](C)O)[C@@H](C)CC)C(=O)N[C@@H](Cc1ccccc1)C(N)=O

Numbered stars: 1 amine (or outer) side, 2 acyl side, 3 side chain; on linkers, the order of the positions; unused ones are H or OH. Square brackets hold non-standard residues; d marks the D form. Ends that are not written are not given here. Dap(AcBr) = N-(bromoacetyl)-L-2,3-diaminopropionic acid, O=C(CBr)NC[C@H](N[*:1])C(=O)[*:2]; Oic = O=C(O)[C@@H]1C[C@@H]2CCCC[C@@H]2N1; Dip = N[C@H](C(=O)O)C(c1ccccc1)c1ccccc1; β3hF = N[C@H](CC(=O)O)Cc1ccccc1; Chg = N[C@H](C(=O)O)C1CCCCC1; Phg = N[C@H](C(=O)O)c1ccccc1; Tle = CC(C)(C)[C@H](N)C(=O)O; β3hP = O=C(O)C[C@@H]1CCCN1; Dpa = not defined here

The experiment has as its target T1, ferroportin tagged at the C-terminus with green fluorescent protein (ECR293/Fpn-GFP cells). In words: cell-based or functional assay.
With B1, the EC50 (nM); loss of fluorescence of Fpn-GFP cells, flow cytometry worked out at 80 nM.

For B2, the EC50 (nM); loss of fluorescence of Fpn-GFP cells, flow cytometry stood at 70 nM.

Molecule B3 came in with an EC50 (nM); loss of fluorescence of Fpn-GFP cells, flow cytometry above 3000 nM.

Molecule B4 showed an EC50 (nM); loss of fluorescence of Fpn-GFP cells, flow cytometry of 300 nM.

B5 returned an EC50 (nM); loss of fluorescence of Fpn-GFP cells, flow cytometry of 700 nM.

In the case of B6, the EC50 (nM); loss of fluorescence of Fpn-GFP cells, flow cytometry came out at 200 nM.

B7 yielded an EC50 (nM); loss of fluorescence of Fpn-GFP cells, flow cytometry of 600 nM.

In the case of B8, the EC50 (nM); loss of fluorescence of Fpn-GFP cells, flow cytometry is above 3000 nM.

The molecule B9 gave an EC50 (nM); loss of fluorescence of Fpn-GFP cells, flow cytometry of 500 nM.

As for B10, the EC50 (nM); loss of fluorescence of Fpn-GFP cells, flow cytometry was above 10000 nM.
